# Test results from article PMC12214560, “NAD-dependent dehydrogenases enable efficient growth of Paracoccus denitrificans on the PET monomer ethylene glycol” (Nature Communications, 2025).
# Numbering of substitutions follows the chain as printed. Numbers in names are those of the source.
# B1: EtgA, NAD-dependent aldehyde dehydrogenase (Pden_2366) (enzyme, Paracoccus denitrificans DSM 413)
# chain: MPNDQTHPFRGVNALPFEERYDNFIGGEWVAPVSGRYFTNTTPITGAEIGQIARSEAGDIELALDAAHAAKEKWGATSPAERANIMLKIADRMERNLELLATAETWDNGKPIRETMAADLPLAIDHFRYFAGVLRAQEGSISQIDDDTVAYHFHEPLGVVGQIIPWNFPLLMACWKLAPAIAAGNCVVLKPAEQTPAGIMVWANLIGDLLPPGVLNIVNGFGLEAGKPLASSNRIAKIAFTGETTTGRLIMQYASENLIPVTLELGGKSPNIFFADVAREDDDFFDKALEGFTMFALNQGEVCTCPSRVLIQESIYDKFMERAVQRVQAIKQGDPRESDTMIGAQASSEQKEKILSYLDIGKKEGAEVLTGGKAADLGGELSGGYYIEPTIFRGNNKMRIFQEEIFGPVVSVTTFKDQAEALEIANDTLYGLGAGVWSRDANTCYRMGRGIKAGRVWTNCYHAYPAHAAFGGYKQSGIGRETHKMMLDHYQQTKNMLVSYSPKKLGFF
# notes: EtgA, NAD-dependent aldehyde dehydrogenase of Paracoccus denitrificans DSM 413, gene Pden_2366 amplified from genomic DNA and cloned into pET16b; also called aldehyde dehydrogenase EtgA; source: E. coli BL21 AI, purified (Ni-NTA, desalting, size exclusion on Superdex 200 Increase)
# B2: EtgB, NAD-dependent alcohol dehydrogenase (Pden_2367) (enzyme, Paracoccus denitrificans DSM 413)
# chain: MAKTMKAAVVREFGKPLTIDEVPVPEPGPGMIQVRIQASGVCHTDLHAAEGDWPVKPNPPFIPGHEGVGFVSAVGAGVKHVKEGDRVGVPWLYTACGHCRHCLGGWETLCESQLNTGYSVNGGFADYVVADPNYVGHLPKNVDFLDIAPVLCAGVTVYKGLKVTDTKPGDWVVISGIGGLGHMAVQYAKAMGMNVAAVDIDDEKLALARKLGATVTVNAATEPDPAAAIRKQTDGGAQGVLVTAVGRKAFEQAIGMVARGGTVALNGLPPGDFPLDIFGMVLNGITVRGSIVGTRLDLQESLDFAGDGKVKATVHKAKLEDINNIFGQMHKGQIEGRMVLDMAG
# notes: The enzyme holds zinc ions; also called EtgB WT; alcohol dehydrogenase EtgB; source: E. coli BL21 AI, purified (Ni-NTA, desalting, size exclusion on Superdex 200 Increase)
# B3: EtgB (Paracoccus denitrificans PD1222; T44S) (protein)
# chain: B2 chain with T44S
# notes: pET16b, His-tagged, E. coli BL21 AI, Ni-NTA purified; homotetramer; zinc-dependent medium-chain alcohol dehydrogenase
# B4: EtgB (Paracoccus denitrificans PD1222; H47N/T44S) (protein)
# chain: B2 chain with T44S, H47N
# notes: as for B3
# B5: EtgB (Paracoccus denitrificans PD1222; H47N) (protein)
# chain: B2 chain with H47N
# notes: as for B3
# Columns and labels:
# purified protein [1] = substrate: CC=O; experiment: purified protein; type: biochemical, Paracoccus denitrificans; settings: 30 °C
# purified protein [2] = substrate: O=CCO; experiment: purified protein; type: biochemical, Paracoccus denitrificans; settings: 30 °C
# [3] = target: the molecule itself; experiment: cryo-EM structure; protein purified by Ni-NTA and size exclusion in buffer C (100 mM sodium chloride, 25 mM potassium phosphate pH 8.0, 1 mM DTT); Titan Krios 300 kV, K3 detector; processed in RELION-5.0; homo-oligomer seen in the map
# purified protein [4] = substrate: CCO; experiment: purified protein; settings: 100 mM glycine-NaOH pH 10, 2.4 mM NAD+, 30 °C, oxidation
# purified protein [5] = substrate: CC(O)CO; experiment: purified protein; type: biochemical, Paracoccus denitrificans; settings: 100 mM glycine-NaOH pH 10, 2.4 mM NAD+, 30 °C, oxidation
# purified protein [6] = substrate: CCCCO; experiment: purified protein; type: biochemical, Paracoccus denitrificans; settings: 100 mM glycine-NaOH pH 10, 2.4 mM NAD+, 30 °C, oxidation
# purified protein [7] = substrate: CCCO; experiment: purified protein; type: biochemical, Paracoccus denitrificans; settings: 100 mM glycine-NaOH pH 10, 2.4 mM NAD+, 30 °C, oxidation
# purified protein [8] = substrate: OCCO; experiment: purified protein; type: biochemical, Paracoccus denitrificans; settings: 100 mM glycine-NaOH pH 10, 2.4 mM NAD+, 30 °C, oxidation
# [9] = 100 mM potassium phosphate pH 7.5, 2.4 mM NAD+, oxidation
# [10] = 100 mM potassium phosphate pH 7.5, 0.2 mM NADH, reduction
Protein,stoichiometry N [3],Km (purified protein [4]) [µM],kcat (purified protein [4]) [s⁻¹],kcat/Km (purified protein [4]) [M⁻¹ s⁻¹],Km (purified protein [5]) [µM],kcat (purified protein [5]) [s⁻¹],kcat/Km (purified protein [5]) [M⁻¹ s⁻¹],Km (purified protein [8]) [µM],kcat (purified protein [8]) [s⁻¹],kcat/Km (purified protein [8]) [M⁻¹ s⁻¹],also measured
B1,4,–,–,–,–,–,–,–,–,–,Km (purified protein [1]; [9]): 9 ± 1 µM; kcat (purified protein [1]; [9]): 1.3 ± 0.1 s⁻¹; kcat/Km (purified protein [1]; [9]): 135000 ± 21000 M⁻¹ s⁻¹; Km (purified protein [2]; [9]): 120 ± 10 µM; kcat (purified protein [2]; [9]): 6.3 ± 0.2 s⁻¹; kcat/Km (purified protein [2]; [9]): 51300 ± 4900 M⁻¹ s⁻¹
B2,4,120 ± 10,23.5,201000,59460 ± 3310,3.5 ± 0.1,59.6 ± 1,11050 ± 1320,7.2 ± 0.2,651 ± 22,Km (purified protein [1]; [10]): 40 ± 10 µM; kcat (purified protein [1]; [10]): 158 ± 2.9 s⁻¹; kcat/Km (purified protein [1]; [10]): 3.84e+06 ± 240000 M⁻¹ s⁻¹; Km (purified protein [6]): 40 ± 10 µM; kcat (purified protein [6]): 8.4 ± 0.1 s⁻¹; kcat/Km (purified protein [6]): 213000 ± 14000 M⁻¹ s⁻¹; Km (purified protein [7]): 110 ± 10 µM; kcat (purified protein [7]): 18.7 ± 0.5 s⁻¹; kcat/Km (purified protein [7]): 176000 ± 14000 M⁻¹ s⁻¹; Km (purified protein [2]; [10]): 1040 ± 60 µM; kcat (purified protein [2]; [10]): 50.1 ± 1.2 s⁻¹; kcat/Km (purified protein [2]; [10]): 48300 ± 3200 M⁻¹ s⁻¹
B3,–,100 ± 20,3.2,33200,27680 ± 1730,1.6 ± 0.1,57.8 ± 0.7,10170 ± 360,0.7 ± 0.1,70.2 ± 2.6,–
B4,–,100 ± 20,10.7,105000,19750 ± 2980,6.5 ± 0.2,330 ± 11,11510 ± 1470,2.9 ± 0.1,251 ± 5,–
B5,–,230 ± 10,25.2,108000,67180 ± 8900,13.2 ± 0.6,197 ± 8,53690 ± 4040,14.7 ± 0.3,274 ± 6,–
